Assay results as given in US20050130227A1 (MUNIN, published 2005).

T1: nuclear membrane protein nucleoporin p62 (mouse, UniProt Q63850 2-526)
T1 construct: Negative control protein; detected with anti-Nucleoporin p62 monoclonal clone 53; also called nuclear envelope protein Nucleoporin p62
T1 sequence (looked up): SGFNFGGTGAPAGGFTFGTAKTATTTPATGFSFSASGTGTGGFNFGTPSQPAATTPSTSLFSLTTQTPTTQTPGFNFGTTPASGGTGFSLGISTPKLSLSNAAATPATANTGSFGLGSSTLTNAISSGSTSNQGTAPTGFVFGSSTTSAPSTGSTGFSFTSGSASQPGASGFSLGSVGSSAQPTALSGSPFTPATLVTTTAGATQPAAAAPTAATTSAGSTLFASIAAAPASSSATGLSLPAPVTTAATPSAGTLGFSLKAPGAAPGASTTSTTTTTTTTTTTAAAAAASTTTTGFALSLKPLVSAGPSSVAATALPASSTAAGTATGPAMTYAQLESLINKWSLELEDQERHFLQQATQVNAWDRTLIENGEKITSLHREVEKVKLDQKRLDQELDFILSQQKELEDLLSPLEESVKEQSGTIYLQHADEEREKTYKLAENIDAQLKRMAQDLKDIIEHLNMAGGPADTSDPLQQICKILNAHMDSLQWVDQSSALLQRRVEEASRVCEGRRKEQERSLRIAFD

B1: recombinant GST-mGPBP fusion protein (other)
chain: MAQHDFAPAWLNFPTPPSSTKSSLNFEKHSENFSWTENRYDVSRRRHNSSDGFDSGIGRPNGGNFGRKEKNGWRTHGRNGTENINHRGGYHGGNSRSRSSIFHSGKSQGLHENSIPDNETGRKEDKRERRQFEAEDFPSLNPEYEREPNQNKSLAAGVWGLHAQTHTYPTKKISQAPLLDYPPNPKSRTPRMLVIKKGNTKDLQLSGFPVAGNLQSQPVKNGTSPSVYKGLVPKPAVPPTKPTQWKSQTKENKVGTSFSHESTYGVGNFNTFKSTAKNISPSTNSVKECNRSNSSSPVDKLNQQPRLTKLTRMRSDKKSEFLKALKRDRVEEEHEDESHAGSEKDDDSFNLHNSNTTHQERDINRNFDENEIPQENGNASIISQQIIRSSTFPQTDVLSSSLEAEHRLLKEMGWQEDSENDETCAPLTEDEMREFQVISEQLQKNGLRKNGILKNGLICDFKFGPWKNSTFKPTIENDDTETSSSDTSDDDDV
notes: also called immobilized recombinant mGPBP; bead immobilized GST-mGPBP fusion proteins; not shown: N-terminal glutathione S-transferase (GST) carrier and the vector-encoded linker of pGEX-4T-1 between GST and the insert
B2: HA-tagged mGPBP (other)
chain: B1 chain
notes: Expressed from pCDNAHA-mGPBP in transfected mouse C1-1D cells; whole mGPBP ORF; also called HA-mGPBP; HA-tag fused to mGPBP; not shown: hemagglutinin antigen (HA) tag upstream of and in frame with the ORF

Assays:
[1] = target: T1, nuclear membrane protein nucleoporin p62; experiment: GST pull-down from mouse C1-1D nuclear extract, Western blot
Text: (A) Mouse C1-1D cell nuclear extract proteins were allowed to bind to bead immobilized GST-mGPBP fusion proteins. […] The antibodies used to probe these blots were raised against TBP, The C-terminal domain of RNA polymerase II (RNA pol II CTD), Transcription Fraction IIB (TFIIB), Transcription Fraction IIF RAP30 subunit (TFIIF RAP30), P300/CAAT Binding Protein (CBP), and the negative control antibodies against the nuclear envelope protein Nucleoporin p62. The estimated molecular weight of proteins in each band (in Kd) based on electrophoretic mobility in comparison to protein size markers were shown on the right by arrows. (B) In vivo binding of mGPBP was determined by immuno-coprecipitation analyses of cell lysates. […] The antibodies raised against TBP, RNA pol II CTD, TFIIB, CBP, or HA-tag were used as probes as indicated in each blot. The estimated molecular weight of proteins in each band (in Kd) based on electrophoretic mobility in comparison to protein size markers are shown on by arrows. The migration location of the HA-mGPBP fusion protein is also shown on the right of the panel with an arrow.
Nuclear extracts were prepared as previously described (Berger and Kimmel, 1987) with minor modifications. Mouse C1-1D Cells were collected and washed with 10 volumes of PBS once. […]

[2] = target: T1, nuclear membrane protein nucleoporin p62; experiment: co-immunoprecipitation with anti-HA antibodies from transfected C1-1D cells, Western blot
Text: To examine whether the in vitro complexing of GPBP with transcription factors also occurs in vivo, we performed a co-immunoprecipitation experiment using an HA-tagged mGPBP expression construct in mouse C1-1D cells. The hemagglutinin antigen (HA)-tagged (Field, 1988[2]) mGPBP eukaryotic expression construct pCDNAHA-mGPBP was generated by inserting the (HA) tag coding sequence upstream of, and in frame with, the mGPBP cDNA's ORF in pCDNA-mGPBP. Anti-HA antibodies were used to immunoprecipitate nuclear extract proteins derived from the transfected cells. As a control, nuclear extract from cells transfected with the HA expression vector containing no GPBP-encoding sequences underwent a similar immunoprecipitation procedure.

Row | Binder | binding result [1] | binding result [2]
1 | B1 | no binding | 
2 | B2 |  | no binding
